Data from patent US8741844B2, “Use of mutated antithrombins for treating or preventing coagulation disorders” (Universite Paris-Sud XI, priority 2007, dated 2014).

How the values were obtained:
[1] = test system: pentasaccharide bound plasma antithrombin (plasma anti-factor Xa activity); experiment: Rotachrom heparin anti factor Xa assay in pentasaccharide containing human plasma (competition with plasma antithrombin for pentasaccharide binding); assay type: biochemical; settings: human plasma, pre-incubation 30 min at 37° C.
Protocol: Anti factor Xa inhibitory activity of mutated antithrombins AT-R393H(SEQ ID NO: 4), AT-Pro394 (SEQ ID NO: 6), AT-ΔR393-5394 (SEQ ID NO: 18), AT-ΔR393 (SEQ ID NO: 8), AT-ΔS394 (SEQ ID NO: 10), AT-N135Q-R393H(SEQ ID NO: 14), AT-N135Q-Pro394 (SEQ ID NO: 16), AT-N135Q-ΔR393-S394 (SEQ ID NO: 24), AT-N135Q-ΔR393 (SEQ ID NO: 20), AT-N135Q-ΔS394 (SEQ ID NO: 22) is measured in pentasaccharide containing plasma. The plasma concentrations of pentasaccharides are defined on the basis on those measured in patients treated by the pentasaccharide under the conditions of a regular (curative) use of this molecule or in patients presenting an overdose of this drug, knowing that the optimal equilibrium concentration is 1.20-1.26 mg/L and the minimal equilibrium concentration is 0.46-0.62 mg/L during a curative pentasaccharide treatment (monograph, Arixtra®).
The anti factor Xa assay is performed using the Rotachrom® heparin method (Stago) adaptated for absorbance reading on a microplate reader (Dynatech MR 5000), or a STA analyser (Stago).
The procedure consists in mixing 30 μl of pentasaccharide containing plasma sample diluted four times in kinetic buffer, with 75 μl of chromogenic substrate (1 mM, provided in Rotachrom® heparin kit). After 4 min incubation, 75 μl of bovine factor Xa (24 nM, Rotachrom® heparin kit) is added to the plasma-substrate mixture. The factor Xa activity is measured a 405 nm absorbance increase, resulting from cleavage of the chromogenic substrate, using a microplate reader (Dynatech MR 5000). The rate constant (k), proportional to anti-factor Xa activity, is obtained by fitting the substrate hydrolysis curve to equation (3) or (3′).
Firstly, the assay is calibrated in citrated (0.105 M) normal human plasma containing pentasaccharide concentrations ranging from 0 to 3 mg/L. A standard curve is generated and anti-factor Xa activity is expressed as mg of pentasaccharide per liter of plasma.
Secondly, to evaluate the anti factor Xa inhibitory activity of mutated antithrombins, the mutated antithrombin (0-0.6 g/L, preferably 0.15-0.6 g/L, final concentration, in kinetic buffer) is pre-incubated with an equal volume of pentasaccharide (0-3 mg/L, preferably 1-3 mg/L) containing plasma samples, during 30 min at 37° C.
Under these conditions, the mutated antithrombin concentration range from one to four times that of the plasma antithrombin level, which is compatible with a therapeutic use of antithrombin. Indeed, very high doses of mutated antithrombin, with a 5 fold increase in plasma antithrombin level, have already been used during clinical trials without side effects (Leitner J M, Firbas C, Mayr F B, Reiter R A, Steinlechner B, Jilma B., Recombinant human antithrombin inhibits thrombin formation and interleukin 6 release in human endotoxemia. Clin Pharmacol Ther. 2006 January; 79(1):23-34). Anti factor Xa inhibitory activity is then evaluated as previously described.
To estimate whether mutated antithrombin can be used as reversal of pentasaccharide in case of over-dosing, AT-N135Q-R393H(SEQ ID NO: 14) and AT-N135Q-Pro394 (SEQ ID NO: 16) are tested in Rotachrom® heparin assay for their ability to restore factor Xa activity. Under conditions of treatment for prevention of venous thromboembolic events, optimal pentasaccharide concentration ranges between 1.2 and 1.26 μg/mL in plasma. To mimic an over-dosing, pentasaccharide is added to human plasma pool at concentration of 3 μg/ml. Rotachrom® heparin assay is then performed by incubation of plasma over-dosed with pentasaccharide in the presence of mutated antithrombin in a ratio 1/1, 2/1, and 4/1 compared to plasma antithrombin concentration (i.e. 0.15, 0.3, 0.6 g/l). In this ex vivo assay, anti-factor Xa activity is proportional to the amount of pentasaccharide bound natural antithrombin present in tested plasma, which amount is directly proportional to pentasaccharide concentration in plasma. […]

[2] = test system: pentasaccharide bound murine antithrombin (plasma anti-Xa activity); experiment: Anti factor Xa assay in mouse plasma supplemented with Fondaparinux; assay type: biochemical
Protocol: During the animal experimentation (see detailed protocol below), human mutated antithrombins compete with murine antithrombin for their binding to the pentasaccharide. Thus, preliminary in vitro assays are performed to determine the human mutated antithrombin concentration necessary to compete with the murine antithrombin present in mouse plasma supplemented with Fondaparinux.
These experiments are performed as described in section II-b, using mouse plasma instead of human plasma.

Molecule: AT-R393H: human antithrombin (SEQ ID NO:2) with substitution of the amino acid at position 393 by Histidine
- effect on anti-Xa activity of pentasaccharide containing plasma sample [1]: significant decrease
- effect on anti-Xa activity of pentasaccharide contained in mouse plasma [2]: significant decrease

B1: AT-N135Q-ΔR393: human antithrombin with deletion of position 393 and substitution at 135 by Glutamine (protein, listed as Homo sapiens)
chain: HGSPVDICTAKPRDIPMNPMCIYRSPEKKATEDEGSEQKIPEATNRRVWELSKANSRFATTFYQHLADSKNDNDNIFLSPLSISTAFAMTKLGACNDTLQQLMEVFKFDTISEKTSDQIHFFFAKLNCRLYRKAQKSSKLVSANRLFGDKSLTFNETYQDISELVYGAKLQPLDFKENAEQSRAAINKWVSNKTEGRITDVIPSEAINELTVLVLVNTIYFKGLWKSKFSPENTRKELFYKADGESCSASMMYQEGKFRYRRVAEGTQVLELPFKGDDITMVLILPKPEKSLAKVEKELTPEVLQEWLDELEEMMLVVHMPRFRIEDGFSLKEQLQDMGLVDLFSPEKSKLPGIVAEGRDDLYVSDAFHKAFLEVNEEGSEAAASTAVVIAGSLNPNRVTFKANRPFLVFIREVPLNTIIFMGRVANPCVK
- effect on anti-Xa activity of pentasaccharide containing plasma sample [1]: significant decrease
- effect on anti-Xa activity of pentasaccharide contained in mouse plasma [2]: significant decrease

B2: AT-N135Q-ΔS394: human antithrombin with deletion of position 394 and substitution at 135 by Glutamine (protein, listed as Homo sapiens)
chain: HGSPVDICTAKPRDIPMNPMCIYRSPEKKATEDEGSEQKIPEATNRRVWELSKANSRFATTFYQHLADSKNDNDNIFLSPLSISTAFAMTKLGACNDTLQQLMEVFKFDTISEKTSDQIHFFFAKLNCRLYRKAQKSSKLVSANRLFGDKSLTFNETYQDISELVYGAKLQPLDFKENAEQSRAAINKWVSNKTEGRITDVIPSEAINELTVLVLVNTIYFKGLWKSKFSPENTRKELFYKADGESCSASMMYQEGKFRYRRVAEGTQVLELPFKGDDITMVLILPKPEKSLAKVEKELTPEVLQEWLDELEEMMLVVHMPRFRIEDGFSLKEQLQDMGLVDLFSPEKSKLPGIVAEGRDDLYVSDAFHKAFLEVNEEGSEAAASTAVVIAGRLNPNRVTFKANRPFLVFIREVPLNTIIFMGRVANPCVK
- effect on anti-Xa activity of pentasaccharide containing plasma sample [1]: significant decrease
- effect on anti-Xa activity of pentasaccharide contained in mouse plasma [2]: significant decrease

B3: AT-N135Q-ΔR393-S394: human antithrombin with deletion of positions 393 and 394 and substitution at 135 by Glutamine (protein, listed as Homo sapiens)
chain: HGSPVDICTAKPRDIPMNPMCIYRSPEKKATEDEGSEQKIPEATNRRVWELSKANSRFATTFYQHLADSKNDNDNIFLSPLSISTAFAMTKLGACNDTLQQLMEVFKFDTISEKTSDQIHFFFAKLNCRLYRKAQKSSKLVSANRLFGDKSLTFNETYQDISELVYGAKLQPLDFKENAEQSRAAINKWVSNKTEGRITDVIPSEAINELTVLVLVNTIYFKGLWKSKFSPENTRKELFYKADGESCSASMMYQEGKFRYRRVAEGTQVLELPFKGDDITMVLILPKPEKSLAKVEKELTPEVLQEWLDELEEMMLVVHMPRFRIEDGFSLKEQLQDMGLVDLFSPEKSKLPGIVAEGRDDLYVSDAFHKAFLEVNEEGSEAAASTAVVIAGLNPNRVTFKANRPFLVFIREVPLNTIIFMGRVANPCVK
- effect on anti-Xa activity of pentasaccharide containing plasma sample [1]: significant decrease
- effect on anti-Xa activity of pentasaccharide contained in mouse plasma [2]: significant decrease

B4: AT-ΔR393-S394: human antithrombin with deletion of the amino acids at positions 393 and 394 (protein, listed as Homo sapiens)
chain: HGSPVDICTAKPRDIPMNPMCIYRSPEKKATEDEGSEQKIPEATNRRVWELSKANSRFATTFYQHLADSKNDNDNIFLSPLSISTAFAMTKLGACNDTLQQLMEVFKFDTISEKTSDQIHFFFAKLNCRLYRKANKSSKLVSANRLFGDKSLTFNETYQDISELVYGAKLQPLDFKENAEQSRAAINKWVSNKTEGRITDVIPSEAINELTVLVLVNTIYFKGLWKSKFSPENTRKELFYKADGESCSASMMYQEGKFRYRRVAEGTQVLELPFKGDDITMVLILPKPEKSLAKVEKELTPEVLQEWLDELEEMMLVVHMPRFRIEDGFSLKEQLQDMGLVDLFSPEKSKLPGIVAEGRDDLYVSDAFHKAFLEVNEEGSEAAASTAVVIAGLNPNRVTFKANRPFLVFIREVPLNTIIFMGRVANPCVK
- effect on anti-Xa activity of pentasaccharide containing plasma sample [1]: significant decrease
- effect on anti-Xa activity of pentasaccharide contained in mouse plasma [2]: significant decrease

B5: AT-ΔR393: human antithrombin with deletion of the amino acid at position 393 (protein, listed as Homo sapiens)
chain: HGSPVDICTAKPRDIPMNPMCIYRSPEKKATEDEGSEQKIPEATNRRVWELSKANSRFATTFYQHLADSKNDNDNIFLSPLSISTAFAMTKLGACNDTLQQLMEVFKFDTISEKTSDQIHFFFAKLNCRLYRKANKSSKLVSANRLFGDKSLTFNETYQDISELVYGAKLQPLDFKENAEQSRAAINKWVSNKTEGRITDVIPSEAINELTVLVLVNTIYFKGLWKSKFSPENTRKELFYKADGESCSASMMYQEGKFRYRRVAEGTQVLELPFKGDDITMVLILPKPEKSLAKVEKELTPEVLQEWLDELEEMMLVVHMPRFRIEDGFSLKEQLQDMGLVDLFSPEKSKLPGIVAEGRDDLYVSDAFHKAFLEVNEEGSEAAASTAVVIAGSLNPNRVTFKANRPFLVFIREVPLNTIIFMGRVANPCVK
- effect on anti-Xa activity of pentasaccharide containing plasma sample [1]: significant decrease
- effect on anti-Xa activity of pentasaccharide contained in mouse plasma [2]: significant decrease

B6: AT-ΔS394: human antithrombin with deletion of the amino acid at position 394 (protein, listed as Homo sapiens)
chain: HGSPVDICTAKPRDIPMNPMCIYRSPEKKATEDEGSEQKIPEATNRRVWELSKANSRFATTFYQHLADSKNDNDNIFLSPLSISTAFAMTKLGACNDTLQQLMEVFKFDTISEKTSDQIHFFFAKLNCRLYRKANKSSKLVSANRLFGDKSLTFNETYQDISELVYGAKLQPLDFKENAEQSRAAINKWVSNKTEGRITDVIPSEAINELTVLVLVNTIYFKGLWKSKFSPENTRKELFYKADGESCSASMMYQEGKFRYRRVAEGTQVLELPFKGDDITMVLILPKPEKSLAKVEKELTPEVLQEWLDELEEMMLVVHMPRFRIEDGFSLKEQLQDMGLVDLFSPEKSKLPGIVAEGRDDLYVSDAFHKAFLEVNEEGSEAAASTAVVIAGRLNPNRVTFKANRPFLVFIREVPLNTIIFMGRVANPCVK
- effect on anti-Xa activity of pentasaccharide containing plasma sample [1]: significant decrease
- effect on anti-Xa activity of pentasaccharide contained in mouse plasma [2]: significant decrease
